Measured values reported in patent publication US20160130347A1 (Hoffmann-La Roche, published 2016).

T1: human MCSP(D3 domain)-avi-his (human, UniProt Q6UVK1 1587-2221, limits assumed)
T1 construct: domain: D3 domain; also called hu-MCSP(D3 domain)-avi-his
T1 sequence (looked up): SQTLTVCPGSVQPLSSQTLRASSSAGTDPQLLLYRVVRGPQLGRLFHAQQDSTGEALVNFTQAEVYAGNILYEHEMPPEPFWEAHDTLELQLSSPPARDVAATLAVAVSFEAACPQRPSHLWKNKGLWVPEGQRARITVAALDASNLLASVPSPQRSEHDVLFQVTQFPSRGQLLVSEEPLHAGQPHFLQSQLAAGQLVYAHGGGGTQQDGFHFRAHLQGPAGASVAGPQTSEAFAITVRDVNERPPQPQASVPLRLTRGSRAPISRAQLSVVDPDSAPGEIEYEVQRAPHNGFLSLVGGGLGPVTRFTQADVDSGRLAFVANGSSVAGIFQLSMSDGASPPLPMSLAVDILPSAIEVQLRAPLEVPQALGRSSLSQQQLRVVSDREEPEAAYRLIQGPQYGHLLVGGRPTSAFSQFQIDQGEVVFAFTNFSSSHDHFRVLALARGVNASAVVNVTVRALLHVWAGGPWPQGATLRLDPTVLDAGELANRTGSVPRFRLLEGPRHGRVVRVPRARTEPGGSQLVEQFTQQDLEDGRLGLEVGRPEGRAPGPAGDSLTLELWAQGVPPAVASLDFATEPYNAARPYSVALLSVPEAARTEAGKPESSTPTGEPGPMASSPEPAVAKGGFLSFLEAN

B1: (scFv)2 (antiMCSP/anti huCD3e) (bispecific antibody)
scFv: DIVLTQSPSSLSASLGDRVTISCSASQGIRNYLNWYQQRPDGTVKLLIYYTSSLHSGVPSRFSGSGSGTDYSLTISNLEPEDIATYYCQQYSKLPWTFGGGTKLEIKGGGGSGGGGSGGGGSEVQLQESGPGLVKPSQSLSLTCSVTGYSITSGYYWNWIRQFPGNKLEWMGYITYDGSNNYNPSLKNRISITRDTSKNQFFLKLNSVTTEDTATYYCADFDYWGQGTTLTVSSGGGGSEVQLVESGGGLVQPGGSLRLSCAASGYSFTGYTMNWVRQAPGKGLEWVALINPYKGVSTYNQKFKDRFTISVDKSKNTAYLQMNSLRAEDTAVYYCARSGYYGDSDWYFDVWGQGTLVTVSSVEGGSGGSGGSGGSGGVDDIQMTQSPSSLSASVGDRVTITCRASQDIRNYLNWYQQKPGKAPKLLIYYTSRLESGVPSRFSGSGSGTDYTLTISSLQPEDFATYYCQQGNTLPWTFGQGTKVEIKHHHHHH
B2: hu Fab (MCSP)-Crossfab (CD3) (bispecific antibody)
chain 1: EVQLQESGPGLVKPSQSLSLTCSVTGYSITSGYYWNWIRQFPGNKLEWMGYITYDGSNNYNPSLKNRISITRDTSKNQFFLKLNSVTTEDTATYYCADFDYWGQGTTLTVSSASTKGPSVFPLAPSSKSTSGGTAALGCLVKDYFPEPVTVSWNSGALTSGVHTFPAVLQSSGLYSLSSVVTVPSSSLGTQTYICNVNHKPSNTKVDKKVEPKSCDGGGGSGGGGSDIQMTQSPSSLSASVGDRVTITCRASQDIRNYLNWYQQKPGKAPKLLIYYTSRLESGVPSRFSGSGSGTDYTLTISSLQPEDFATYYCQQGNTLPWTFGQGTKVEIKSSASTKGPSVFPLAPSSKSTSGGTAALGCLVKDYFPEPVTVSWNSGALTSGVHTFPAVLQSSGLYSLSSVVTVPSSSLGTQTYICNVNHKPSNTKVDKKVEPKSC
light: DIVLTQSPSSLSASLGDRVTISCSASQGIRNYLNWYQQRPDGTVKLLIYYTSSLHSGVPSRFSGSGSGTDYSLTISNLEPEDIATYYCQQYSKLPWTFGGGTKLEIKRTVAAPSVFIFPPSDEQLKSGTASVVCLLNNFYPREAKVQWKVDNALQSGNSQESVTEQDSKDSTYSLSSTLTLSKADYEKHKVYACEVTHQGLSSPVTKSFNRGEC
chain 2: EVQLVESGGGLVQPGGSLRLSCAASGYSFTGYTMNWVRQAPGKGLEWVALINPYKGVSTYNQKFKDRFTISVDKSKNTAYLQMNSLRAEDTAVYYCARSGYYGDSDWYFDVWGQGTLVTVSSASVAAPSVFIFPPSDEQLKSGTASVVCLLNNFYPREAKVQWKVDNALQSGNSQESVTEQDSKDSTYSLSSTLTLSKADYEKHKVYACEVTHQGLSSPVTKSFNRGEC
B3: hu Fab (MCSP)=Crossfab (CD3) (bispecific antibody)
chain 1: B2 chain 1
chain 2: EVQLVESGGGLVQPGGSLRLSCAASGYSFTGYTMNWVRQAPGKGLEWVALINPYKGVSTYNQKFKDRFTISVDKSKNTAYLQMNSLRAEDTAVYYCARSGYYGDSDWYFDVWGQGTLVTVSSASVAAPSVFIFPPSDEQLKSGTASVVCLLNNFYPREAKVQWKVDNALQSGNSQESVTEQDSKDSTYSLSSTLTLSKADYEKHKVYACEVTHQGLSSPVTKSFNRGECDGGGGSGGGGSDIVLTQSPSSLSASLGDRVTISCSASQGIRNYLNWYQQRPDGTVKLLIYYTSSLHSGVPSRFSGSGSGTDYSLTISNLEPEDIATYYCQQYSKLPWTFGGGTKLEIKRTVAAPSVFIFPPSDEQLKSGTASVVCLLNNFYPREAKVQWKVDNALQSGNSQESVTEQDSKDSTYSLSSTLTLSKADYEKHKVYACEVTHQGLSSPVTKSFNRGEC
B4: M4-3(C1)/ML2(G3) IgG (antibody, V domains shown)
VH: QVQLQESGPGLVKPSQTLSLTCTVSGGSITSGYYWNWIRQHPGKGLEWIGYITFDGSNNYNPSLKSRVTISRDTSKNQFSLKLSSVTAADTAVYYCADFDYWGQGTLVTVSS
VL: DIQMTQSPSSLSASVGDRVTITCRASQGIRNYLNWYQQKPGKAPKLLIYYTSSLHSGVPSRFSGSGSGTDYTLTISSLQPEDFATYYCQQYSALPWTFGQGTKVEIKR
notes: Human IgG1; also called MCSP M4-3(C1)ML2(G3)

Columns and labels:
[1] = biological target: human MCSP on tumor cells (human, UniProt Q6UVK1 30-2322); test: cell-based or functional assay
human CD3 on T cells = human CD3 on T cells (human, UniProt P07766 23-126); test: cell-based or functional assay
[2] = biological target: T1, human MCSP(D3 domain)-avi-his; test: ratio of ProteOn IgG KD against parental M4-3/ML2 IgG
Method: (§1) Briefly, carboxymethylated dextran biosensor chips (CM5, GE Healthcare) were activated with N-ethyl-N′-(3-dimethylaminopropyl)-carbodiimide hydrochloride (EDC) and N-hydroxysuccinimide (NHS) according to the supplier's instructions. Anti-human F(ab′)2 fragment specific capture antibody was diluted with 10 mM sodium acetate, pH 5.0 at 50 μg/ml before injection at a flow rate of 10 μl/minute to achieve approximately up to 10.000 response units (RU) of coupled capture antibody. Following the injection of the capture antibody, 1 M ethanolamine is injected to block unreacted groups. For kinetics measurements, Fabs from bacterial supernatant or purified Fabs were injected at a flow rate of 10 ul/minute for 300 s and a dissociation of 300 s for capture baseline stabilization. Capture levels were in the range of 100-500 RU. […] The surface of the sensorchip was regenerated by injection of glycine pH 1.5 for 30 s at 90 ul/min followed by injection of NaOH for 20 s at the same flow rate. Association rates (kon) and dissociation rates (koff) were calculated using a simple one-to-one Langmuir binding model (ProteOn XPR36 Evaluation Software or Scrubber software (BioLogic)) by simultaneously fitting the association and dissociation sensorgrams. The equilibrium dissociation constant (KD) was calculated as the ratio koff/kon.
(§2) Method exactly as described for the Fab fragments, just purified IgG from mammalian production were used.

cynomolgus MCSP D3 = biological target: T2, cynomolgus MCSP D3 (cynomolgus); test: as above
T2 construct: domain: D3; also called Cyno MCSP; cynomolgus homologue
Method: as §1, §2

Chain of human CD3 on T cells (P07766 23-126 limits assumed): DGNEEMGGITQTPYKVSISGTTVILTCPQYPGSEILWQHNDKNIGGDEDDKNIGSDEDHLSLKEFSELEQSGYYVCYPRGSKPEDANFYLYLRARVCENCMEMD
Chain of human MCSP on tumor cells (Q6UVK1 30-2322): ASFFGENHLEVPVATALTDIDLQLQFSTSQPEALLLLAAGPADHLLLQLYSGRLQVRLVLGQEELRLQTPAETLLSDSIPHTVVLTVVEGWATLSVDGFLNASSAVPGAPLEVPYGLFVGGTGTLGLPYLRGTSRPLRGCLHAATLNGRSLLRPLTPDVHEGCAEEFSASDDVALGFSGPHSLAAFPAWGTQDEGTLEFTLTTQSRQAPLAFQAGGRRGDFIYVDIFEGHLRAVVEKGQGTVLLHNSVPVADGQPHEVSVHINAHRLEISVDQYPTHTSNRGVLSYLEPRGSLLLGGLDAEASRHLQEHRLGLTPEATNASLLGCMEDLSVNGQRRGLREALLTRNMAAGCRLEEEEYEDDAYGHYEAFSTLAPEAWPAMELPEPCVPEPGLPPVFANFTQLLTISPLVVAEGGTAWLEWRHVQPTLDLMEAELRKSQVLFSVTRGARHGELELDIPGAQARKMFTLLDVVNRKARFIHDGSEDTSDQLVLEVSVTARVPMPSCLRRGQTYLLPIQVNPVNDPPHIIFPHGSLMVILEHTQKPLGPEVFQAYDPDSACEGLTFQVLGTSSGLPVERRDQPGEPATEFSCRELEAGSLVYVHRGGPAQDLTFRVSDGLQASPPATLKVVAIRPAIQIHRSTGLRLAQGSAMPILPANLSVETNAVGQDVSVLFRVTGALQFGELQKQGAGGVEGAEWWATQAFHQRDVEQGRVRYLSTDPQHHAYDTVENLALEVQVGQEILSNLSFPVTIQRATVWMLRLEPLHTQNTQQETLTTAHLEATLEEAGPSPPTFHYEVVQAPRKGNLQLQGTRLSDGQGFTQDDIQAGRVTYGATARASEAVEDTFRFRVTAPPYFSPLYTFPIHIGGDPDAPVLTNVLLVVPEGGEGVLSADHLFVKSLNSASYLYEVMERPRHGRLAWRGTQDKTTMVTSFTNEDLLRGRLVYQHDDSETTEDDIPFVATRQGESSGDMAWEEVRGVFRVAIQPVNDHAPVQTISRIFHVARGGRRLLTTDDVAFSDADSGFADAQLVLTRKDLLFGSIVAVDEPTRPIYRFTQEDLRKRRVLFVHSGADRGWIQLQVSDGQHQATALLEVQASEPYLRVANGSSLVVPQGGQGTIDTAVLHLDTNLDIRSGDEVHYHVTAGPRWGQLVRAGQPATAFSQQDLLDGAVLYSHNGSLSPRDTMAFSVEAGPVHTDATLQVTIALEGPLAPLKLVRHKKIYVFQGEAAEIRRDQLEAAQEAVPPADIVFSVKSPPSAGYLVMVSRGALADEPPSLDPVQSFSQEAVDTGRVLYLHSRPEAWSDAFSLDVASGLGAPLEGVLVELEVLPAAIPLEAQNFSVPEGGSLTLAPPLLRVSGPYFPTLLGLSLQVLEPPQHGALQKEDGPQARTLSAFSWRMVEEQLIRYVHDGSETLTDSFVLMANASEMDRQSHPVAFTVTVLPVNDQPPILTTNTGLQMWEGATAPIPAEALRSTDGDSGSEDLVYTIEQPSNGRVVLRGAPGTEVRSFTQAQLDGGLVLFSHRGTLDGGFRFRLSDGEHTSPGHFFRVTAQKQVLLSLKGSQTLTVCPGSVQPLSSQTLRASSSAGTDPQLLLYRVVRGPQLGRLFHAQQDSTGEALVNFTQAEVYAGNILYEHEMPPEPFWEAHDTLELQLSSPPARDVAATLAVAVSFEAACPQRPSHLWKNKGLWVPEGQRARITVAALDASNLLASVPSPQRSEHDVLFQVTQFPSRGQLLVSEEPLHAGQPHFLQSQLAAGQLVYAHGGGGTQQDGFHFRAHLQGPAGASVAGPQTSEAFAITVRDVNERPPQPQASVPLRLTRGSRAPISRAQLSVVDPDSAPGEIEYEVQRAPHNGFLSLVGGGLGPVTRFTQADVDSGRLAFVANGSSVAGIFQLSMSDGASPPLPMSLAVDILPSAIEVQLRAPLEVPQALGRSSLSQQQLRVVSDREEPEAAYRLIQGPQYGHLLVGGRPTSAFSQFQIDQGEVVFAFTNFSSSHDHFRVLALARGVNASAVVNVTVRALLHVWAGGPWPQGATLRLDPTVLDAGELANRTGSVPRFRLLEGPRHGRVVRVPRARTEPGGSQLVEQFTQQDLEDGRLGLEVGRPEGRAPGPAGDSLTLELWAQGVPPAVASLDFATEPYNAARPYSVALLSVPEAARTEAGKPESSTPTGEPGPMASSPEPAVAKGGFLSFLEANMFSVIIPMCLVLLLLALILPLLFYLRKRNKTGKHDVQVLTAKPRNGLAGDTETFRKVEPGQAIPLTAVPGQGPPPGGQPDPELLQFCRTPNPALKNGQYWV

| Binder | EC50 of killing (LDH release) of MV-3 cells, human PBMCs, E:T 10:1, ~24 h [1] [pM] | EC50 of killing (LDH release) of MV-3 cells, human PBMCs, E:T 10:1, ~24 h (human CD3 on T cells) [pM] | fold increase over parent (IgG KD, comparative binding affinity) [2] [fold] | fold increase over parent (IgG KD, comparative binding affinity) (cynomolgus MCSP D3) [fold] |
| --- | --- | --- | --- | --- |
| B1 | 57.1 | 57.1 |  |  |
| B2 | 25.4 | 25.4 |  |  |
| B3 | 89.8 | 89.8 |  |  |
| B4 |  |  | 28.6 | 10 |
